We go through 4 molecules from paper PMC6695210, “Bipartite interface of the measles virus phosphoprotein X domain with the large polymerase protein regulates viral polymerase dynamics” (PLoS Pathogens, 2019).

Common to all, as to experiment: native gel or EMSA; native PAGE (3–12% Bis-Tris gradient gels, G-250 additive) of cleared lysates of transfected cells, immunoblot; trimeric and dimeric GCN4 variants as mobility reference
Data set [1] concerns the target MeV P-GCN4_(303-360), P with OD residues 303–360 replaced by the tetrameric mutant of the yeast GCN4 coiled-coil (measles virus (strain IC-B) | yeast) (UniProt Q9WMB4).
For data set [2], the target named is MeV P with residues 303–377 replaced by the tetrameric mutant of the yeast GCN4 coiled-coil (measles virus (strain IC-B) | yeast) (UniProt Q9WMB4).
Data set [3] concerns the molecule itself.

Molecule “MeV P-GCN4_(303-360), P with OD residues 303–360 replaced by the tetrameric mutant of the yeast GCN4 coiled-coil (from UniProt Q9WMB4 1-302; Q9WMB4 361-507)” returned a stoichiometry N in data set [1] of 4.

As for “MeV P with residues 303–377 replaced by the tetrameric mutant of the yeast GCN4 coiled-coil (from UniProt Q9WMB4 1-302; Q9WMB4 378-507)”, the stoichiometry N in data set [2] is 4.

B1: MeV P (361–364)Ala, P with residues 361–364 substituted with alanines (natural protein, measles virus (strain IC-B), UniProt Q9WMB4 1-507, looked up)
chain: MAEEQARHVKNGLECIRALKAEPIGSLAVEEAMAAWSEISDNPGQDRATCKEEEAGSSGLSKPCLSAIGSTEGGAPRIRGQGSGESDDDAETLGIPSRNLQASSTGLQCYHVYDHSGEAVKGIQDADSIMVQSGLDGDSTLSGGDDESENSDVDIGEPDTEGYAITDRGSAPISMGFRASDVETAEGGEIHELLKLQSRGNNFPKLGKTLNVPPPPNPSRASTSETPIKKGTDARLASFGTEIASLLTGGATQCARKSPSEPSGPGAPAGNVPECVSNAALIQEWTPESGTTISPRSQNNEEGGDYYDDELFSDVQDIKTALAKIHEDNQKIISKLESLLLLKGEVESIKKQINRQNISIAAAAGHLSSIMIAIPGLGKDPNDPTADVELNPDLKPIIGRDSGRALAEVLKKPVASRQLQGMTNGRTSSRGQLLKEFQLKPIGKKVSSAVGFVPDTGPASRSVIRSIIKSSRLEEDRKRYLMTLLDDIKGANDLAKFHQMLMKIIMK
notes: MeV strain IC-B phosphoprotein P; of the old residues only S361 is printed in the text; also called M1; source: transiently transfected cells, in lysate; not shown: HA, C-terminal, kept
On to B1, for which the “stoichiometry N” value in data set [3] worked out at 4.

B2: MeV phosphoprotein (P), wild type (natural protein)
chain: MAEEQARHVKNGLECIRALKAEPIGSLAVEEAMAAWSEISDNPGQDRATCKEEEAGSSGLSKPCLSAIGSTEGGAPRIRGQGSGESDDDAETLGIPSRNLQASSTGLQCYHVYDHSGEAVKGIQDADSIMVQSGLDGDSTLSGGDDESENSDVDIGEPDTEGYAITDRGSAPISMGFRASDVETAEGGEIHELLKLQSRGNNFPKLGKTLNVPPPPNPSRASTSETPIKKGTDARLASFGTEIASLLTGGATQCARKSPSEPSGPGAPAGNVPECVSNAALIQEWTPESGTTISPRSQNNEEGGDYYDDELFSDVQDIKTALAKIHEDNQKIISKLESLLLLKGEVESIKKQINRQNISISTLEGHLSSIMIAIPGLGKDPNDPTADVELNPDLKPIIGRDSGRALAEVLKKPVASRQLQGMTNGRTSSRGQLLKEFQLKPIGKKVSSAVGFVPDTGPASRSVIRSIIKSSRLEEDRKRYLMTLLDDIKGANDLAKFHQMLMKIIMK
notes: measles virus (MeV) strain IC-B phosphoprotein P, codon-optimized synthetic ORF; ends at residue 507 by the printed limits of P-XD (459–507); also called wild type P; wt P; not shown: HA, C-terminal, kept
As for B2, in data set [3], the “stoichiometry N” value was found to be 4.

As a reminder, the stoichiometry N is the number of molecules, sites or subunits per partner or assembly.
